The data set has as its system O=CCCC=O. The data set is described as follows: Alcohol dehydrogenase YqhD, coupled assay, NADPH consumption. The data set is classed as biochemical, E. coli. The note with it: other: coupled assay, substrate from 0.1-10 mM L-arabonate, 1 mM NADPH, pH 7.5, 10 nM YqhD, 30.0 °C. Here is the method:
2-Ketoacid decarboxylase (Kivd) and alcohol dehydrogenase (YqhD): The decarboxylase activity of Kivd was measured by a coupled enzymatic assay with AraC, AraD, and YqhD (Zhang et al., 2011. ChemSusChem 4:1068-1070). Excess AraC, AraD, and YqhD was used and the oxidation of NADPH was monitored at 340 nm. The assay mixture contained 1 mM NADPH, 1 μM AraC, 1 μM AraD, and 100 nM YqhD and 0.1-10 mM L-arabonate in assay buffer (100 mM Tris-HCl buffer, pH 7.5, 5 mM MgSO4, 0.5 mM ThDP) with a total volume of 0.1 ml. The mixture was incubated at 30° C. for one hour and 10 nM Kivd was added. The dehydrogenase activity of YqhD was assayed according to NADPH initial consumption rates in a coupled assay. The assay mixture contained 1 mM NADPH, 100 nM Kivd, 1 μM AraC, 1 μM AraD, and 0.1-10 mM L-arabonate in 100 μl of 100 mM Tris-HCl buffer (pH 7.5) with 5 mM MgSO4. The mixture was first incubated at 30° C. for one hour. Afterwards, 10 nM YqhD was added and the NADPH consumption rate was monitored.

Usually Km stands for the concentration of substrate that gives half-maximal velocity. Broadly, the kcat is the maximal rate divided by the concentration of active sites. As for “E. coli alcohol dehydrogenase YqhD (Escherichia coli K-12)”, the Km is 1900 µM and the kcat was found to be 45.0 s⁻¹.

(Values after patent publication US20170137855A1, “RECOMBINANT CELLS AND METHODS FOR NONPHOSPHORYLATIVE METABOLISM” (REGENTS OF THE UNIVERSITY OF MINNESOTA, priority 2015, published 2017).)
